Tests used:
Test in all cases: ITC; RPN13 Pru in the cell (15.6, 20.57 or 16 μM), RPN2 (940–953) in the syringe; 25°C; 20 mM sodium phosphate, 50 mM NaCl, pH 6.0, with 10 mM βME (reducing) or without (non-reducing); one-site fit
Settings in all cases: both partners purified
[1] = molecular target: T1, oxidized RPN13 Pru (1–150) after incubation with TXNL1^Trx (UniProt Q16186 1-150, oxidized with 0.05% H2O2, then restored by a 3-fold molar excess of TXNL1 Trx; the residues are not told)
T1 construct: RPN13 Pru domain, residues 1-150; source: E. coli BL21(DE3) pLysS, purified; not shown: His6, N-terminal, cleaved

[2] = molecular target: T2, oxidized RPN13 Pru (1–150) (UniProt Q16186 1-150, oxidized with 0.05% H2O2; the residues are not told)
T2 construct: RPN13 Pru domain, residues 1-150; also called oxi RPN13^Pru; oxi-RPN13^Pru; source: E. coli BL21(DE3) pLysS, purified; oxidized with 0.05% H2O2 on ice for 10 min; not shown: His6, N-terminal, cleaved

[3] = molecular target: T3, RPN13 Pru (1–150), reduced (UniProt Q16186 1-150)
T3 construct: also called RPN13 (1–150); redu RPN13^Pru; source: E. coli BL21(DE3) pLysS, purified (Talon resin, PreScission cleavage, Superdex 75); not shown: His6, N-terminal, cleaved
T3 sequence (Q16186 1-150): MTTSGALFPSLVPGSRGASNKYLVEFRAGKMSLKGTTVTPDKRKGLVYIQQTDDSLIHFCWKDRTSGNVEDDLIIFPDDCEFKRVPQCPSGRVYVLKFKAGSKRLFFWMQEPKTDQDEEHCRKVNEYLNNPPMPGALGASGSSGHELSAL

T2 sequence (Q16186 1-150): as above
T1 sequence (Q16186 1-150): as above

Kd [1]: 18.9 ± 5.7 nM | Kd [2]: 40 ± 15.3 nM | Kd [3]: 12.4 ± 5.29 nM
B1: RPN2 (940–953) (peptide, UniProt Q99460 940-953, looked up)
chain: QEPEPPEPFEYIDD
notes: Eluted from the resin as GST-RPN2 (940–953); also called RPN2 peptide; GST-RPN2 (940–953); source: E. coli BL21(DE3) pLysS, purified (glutathione resin, eluted with reduced glutathione, Superdex 75)

Reference: paper PMC13580404 (Molecular cell, 2026)
